T1: TNFR1 (Homo sapiens, UniProt P19438)
T1 chain: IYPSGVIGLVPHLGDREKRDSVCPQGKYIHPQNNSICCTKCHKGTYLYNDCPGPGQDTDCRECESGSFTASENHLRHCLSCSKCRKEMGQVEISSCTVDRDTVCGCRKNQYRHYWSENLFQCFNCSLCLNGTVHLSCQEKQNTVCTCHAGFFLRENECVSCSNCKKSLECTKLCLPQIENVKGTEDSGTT

B1: V55F (designed binder)
chain: MTLQELLREEALRRAEAEAFRYALELLAEKFPEQKEYLLDLAEEIESQIRSLSGFDVEDVRKFLDKEWAWVKELLAEHPAELAEVEAARAARLAELRAEVEAKVAA
B2: L24V (designed binder)
chain: B1 chain with L24V, F55V
B3: K66Y (designed binder)
chain: B1 chain with F55V, K66Y
B4: A15G (designed binder)
chain: B1 chain with A15G, F55V
B5: A105Q (designed binder)
chain: B1 chain with F55V, A105Q
B6: F20Q (designed binder)
chain: B1 chain with F20Q, F55V
B7: W70E (designed binder)
chain: B1 chain with F55V, W70E
B8: A91P (designed binder)
chain: B1 chain with F55V, A91P
B9: F20I (designed binder)
chain: B1 chain with F20I, F55V
B10: D56V (designed binder)
chain: B1 chain with F55V, D56V
B11: A91Q (designed binder)
chain: B1 chain with F55V, A91Q
B12: E18K (designed binder)
chain: B1 chain with E18K, F55V
B13: L27Y (designed binder)
chain: B1 chain with L27Y, F55V
B14: E18N (designed binder)
chain: B1 chain with E18N, F55V
B15: L41S (designed binder)
chain: B1 chain with L41S, F55V
B16: A105G (designed binder)
chain: B1 chain with F55V, A105G
B17: A19L (designed binder)
chain: B1 chain with A19L, F55V
B18: E16S (designed binder)
chain: B1 chain with E16S, F55V
B19: Q34H (designed binder)
chain: B1 chain with Q34H, F55V
B20: A17Y (designed binder)
chain: B1 chain with A17Y, F55V
B21: A11R (designed binder)
chain: B1 chain with A11R, F55V
B22: F20E (designed binder)
chain: B1 chain with F20E, F55V
B23: E86H (designed binder)
chain: B1 chain with F55V, E86H
B24: L93N (designed binder)
chain: B1 chain with F55V, L93N
B25: E101I (designed binder)
chain: B1 chain with F55V, E101I
B26: A90T (designed binder)
chain: B1 chain with F55V, A90T
B27: A88Y (designed binder)
chain: B1 chain with F55V, A88Y
B28: E44D (designed binder)
chain: B1 chain with E44D, F55V
B29: A102V (designed binder)
chain: B1 chain with F55V, A102V
B30: L52T (designed binder)
chain: B1 chain with L52T, F55V
B31: L39N (designed binder)
chain: B1 chain with L39N, F55V
B32: V100D (designed binder)
chain: B1 chain with F55V, V100D
B33: F20R (designed binder)
chain: B1 chain with F20R, F55V
B34: K35T (designed binder)
chain: B1 chain with K35T, F55V
B35: V60K (designed binder)
chain: B1 chain with F55V, V60K
B36: R21E (designed binder)
chain: B1 chain with R21E, F55V
B37: Q48L (designed binder)
chain: B1 chain with Q48L, F55V
B38: S53K (designed binder)
chain: B1 chain with S53K, F55V
B39: A19K (designed binder)
chain: B1 chain with A19K, F55V
B40: K103P (designed binder)
chain: B1 chain with F55V, K103P
B41: A88W (designed binder)
chain: B1 chain with F55V, A88W
B42: E77Y (designed binder)
chain: B1 chain with F55V, E77Y
B43: L38F (designed binder)
chain: B1 chain with L38F, F55V
B44: L41W (designed binder)
chain: B1 chain with L41W, F55V
B45: A69F (designed binder)
chain: B1 chain with F55V, A69F
B46: R97F (designed binder)
chain: B1 chain with F55V, R97F
B47: A91L (designed binder)
chain: B1 chain with F55V, A91L
B48: K30E (designed binder)
chain: B1 chain with K30E, F55V
B49: Q48D (designed binder)
chain: B1 chain with Q48D, F55V
B50: A76T (designed binder)
chain: B1 chain with F55V, A76T
B51: V71N (designed binder)
chain: B1 chain with F55V, V71N
B52: Q34K (designed binder)
chain: B1 chain with Q34K, F55V
B53: S47R (designed binder)
chain: B1 chain with S47R, F55V
B54: L82F (designed binder)
chain: B1 chain with F55V, L82F
B55: E29A (designed binder)
chain: B1 chain with E29A, F55V

Positions count from the first letter of the chain named. Numbers in names are those of the source.

The assay addresses T1, TNFR1. Briefly: yeast display SC50.
As to B1, the “apparent Kd (screen)” value is 0.869 nM.
B2: the “apparent Kd (screen)” value came out at 0.653 nM.
As for B3, the “apparent Kd (screen)” value came to 0.49 nM.
With B4, the “apparent Kd (screen)” value worked out at 0.539 nM.
B5: the “apparent Kd (screen)” value amounted to 0.539 nM.
On to B6, for which the “apparent Kd (screen)” value amounted to 2.25 nM.
In the case of B7, the “apparent Kd (screen)” value was 26.9 nM.
For the molecule B8, the “apparent Kd (screen)” value was determined as 0.49 nM.
B9: the “apparent Kd (screen)” value was found to be 1.05 nM.
Consider B10, for which the “apparent Kd (screen)” value is 2.73 nM.
With B11, the “apparent Kd (screen)” value was determined as 0.49 nM.
B12: the “apparent Kd (screen)” value turned out to be 0.49 nM.
The value for B13 was 0.539 nM; that for B14 was 0.49 nM; that for B15 was 1.16 nM.
As to B16, the “apparent Kd (screen)” value was 0.869 nM.
The value for B17 was 2.05 nM; that for B18 was 0.653 nM; that for B19 was 0.869 nM.
On to B20, for which the “apparent Kd (screen)” value came to 0.593 nM.
As to B21, the “apparent Kd (screen)” value turned out to be 0.49 nM.
Regarding B22, the “apparent Kd (screen)” value came out at 5.31 nM.
Turning to B23, the “apparent Kd (screen)” value is 0.79 nM.
As to B24, the “apparent Kd (screen)” value came to 0.79 nM.
The value for B25 was 0.49 nM.
In the case of B26, the “apparent Kd (screen)” value was found to be 0.79 nM.
Then B27, with 1.05 nM; and B28, with 7.78 nM.
As for B29, the “apparent Kd (screen)” value turned out to be 0.539 nM.
Then B30, with 0.593 nM; and B31, with 2.48 nM; and B32, with 0.593 nM.
The value for B33 was 10.4 nM; that for B34 was 0.539 nM; that for B35 was 3 nM.
Consider B36, for which the “apparent Kd (screen)” value turned out to be 0.49 nM.
Consider B37, for which the “apparent Kd (screen)” value was 2.73 nM.
Regarding B38, the “apparent Kd (screen)” value amounted to 2.73 nM.
As to B39, the “apparent Kd (screen)” value is 10.4 nM.
With B40, the “apparent Kd (screen)” value was found to be 0.539 nM.
Regarding B41, the “apparent Kd (screen)” value worked out at 0.49 nM.
Regarding B42, the “apparent Kd (screen)” value stood at 0.49 nM.
B43: the “apparent Kd (screen)” value worked out at 0.653 nM.
Take B44: the “apparent Kd (screen)” value was determined as 2.25 nM.
For the molecule B45, the “apparent Kd (screen)” value came out at 0.956 nM.
Turning to B46, the “apparent Kd (screen)” value is 0.49 nM.
In the case of B47, the “apparent Kd (screen)” value was found to be 0.539 nM.
In the case of B48, the “apparent Kd (screen)” value worked out at 0.49 nM.
Then B49, with 22.2 nM; and B50, with 0.405 nM.
As for B51, the “apparent Kd (screen)” value stood at 0.869 nM.
As for B52, the “apparent Kd (screen)” value worked out at 0.653 nM.
For B53, the “apparent Kd (screen)” value was 0.49 nM.
In the case of B54, the “apparent Kd (screen)” value stood at 0.539 nM.
Regarding B55, the “apparent Kd (screen)” value was 0.718 nM.

Source of the values: publication PMC12416549 (2024).
